# Data reported in publication doi:10.1101/2025.11.05.686883 (bioRxiv, 2025).
# Read-outs that look alike come from different tables or passages of the source.
# B1: AR4A Fab (Fab, V domains shown)
# VH: VQLLEQSGPEVKKPGDSLRISCKMSGDSLVTTWIGWVRQKPGQGLEWMGIINPGDSSTNIYPGDSATRYGPSFQGQVTISIDKSTSTAYLQWNNVKASDTGIYYCARHVPVPISGTFLWREREMHDFGYFDDWGQGTLVIVSS
# VL: ELTLTQSPGTLSLSPGERATLSCRASQSVSNNYLAWYQQKPGQAPRLLIYGASSRATGIPDRFSGSGSGTGFTLIISRLEPEDFAVYYCQQYGSSSITFGQGTRLEIK
# B2: AR4A (IgG) (antibody, V domains shown)
# VH: VQLLEQSGPEVKKPGDSLRISCKMSGDSLVTTWIGWVRQKPGQGLEWMGIINPGDSSTNIYPGDSATRYGPSFQGQVTISIDKSTSTAYLQWNNVKASDTGIYYCARHVPVPISGTFLWREREMHDFGYFDDWGQGTLVIVSS
# VL: ELTLTQSPGTLSLSPGERATLSCRASQSVSNNYLAWYQQKPGQAPRLLIYGASSRATGIPDRFSGSGSGTGFTLIISRLEPEDFAVYYCQQYGSSSITFGQGTRLEIK
# B3: RM3-26 (IgG) (antibody, V domains shown)
# VH: QLQLQESGPGLVKPSETLSLTCIVSGGSISGYSWNWIRQPPGKGLEWIGNIFSGGDDANYNPSLKSRVTLSVDTSKNHFSLRLSSVTAADTAVYYCARHSAGFITGRYFELWGQGALVTVSS
# VL: DIQMTQSPSSLSASLGDRVTITCRANQDISSSLAWYQQKPGKAPKPLIYYASNLESGVPSRFRGSGSGTEFTLTISSLQSEDFAVYYCQQYNSDPLTFGGGTKVEIK
# B4: RM3-26 variant, heavy chain CDRH1 Y32 to alanine, wild-type light chain (antibody, V domains shown)
# VH: QLQLQESGPGLVKPSETLSLTCIVSGGSISGASWNWIRQPPGKGLEWIGNIFSGGDDANYNPSLKSRVTLSVDTSKNHFSLRLSSVTAADTAVYYCARHSAGFITGRYFELWGQGALVTVSS
# VL: DIQMTQSPSSLSASLGDRVTITCRANQDISSSLAWYQQKPGKAPKPLIYYASNLESGVPSRFRGSGSGTEFTLTISSLQSEDFAVYYCQQYNSDPLTFGGGTKVEIK
# B5: RM3-26 variant, heavy chain CDRH3 Y100d to alanine, wild-type light chain (antibody, V domains shown)
# VH: QLQLQESGPGLVKPSETLSLTCIVSGGSISGYSWNWIRQPPGKGLEWIGNIFSGGDDANYNPSLKSRVTLSVDTSKNHFSLRLSSVTAADTAVYYCARHSAGFITGRAFELWGQGALVTVSS
# VL: DIQMTQSPSSLSASLGDRVTITCRANQDISSSLAWYQQKPGKAPKPLIYYASNLESGVPSRFRGSGSGTEFTLTISSLQSEDFAVYYCQQYNSDPLTFGGGTKVEIK
# B6: RM3-26 variant, heavy chain CDRH3 R100c to alanine, wild-type light chain (antibody, V domains shown)
# VH: QLQLQESGPGLVKPSETLSLTCIVSGGSISGYSWNWIRQPPGKGLEWIGNIFSGGDDANYNPSLKSRVTLSVDTSKNHFSLRLSSVTAADTAVYYCARHSAGFITGAYFELWGQGALVTVSS
# VL: DIQMTQSPSSLSASLGDRVTITCRANQDISSSLAWYQQKPGKAPKPLIYYASNLESGVPSRFRGSGSGTEFTLTISSLQSEDFAVYYCQQYNSDPLTFGGGTKVEIK
# B7: RM3-26 variant, light chain CDRL2 Y50 to alanine, wild-type heavy chain (antibody, V domains shown)
# VH: QLQLQESGPGLVKPSETLSLTCIVSGGSISGYSWNWIRQPPGKGLEWIGNIFSGGDDANYNPSLKSRVTLSVDTSKNHFSLRLSSVTAADTAVYYCARHSAGFITGRYFELWGQGALVTVSS
# VL: DIQMTQSPSSLSASLGDRVTITCRANQDISSSLAWYQQKPGKAPKPLIYAASNLESGVPSRFRGSGSGTEFTLTISSLQSEDFAVYYCQQYNSDPLTFGGGTKVEIK
# B8: RM3-26 variant, light chain CDRL3 Y91 to alanine, wild-type heavy chain (antibody, V domains shown)
# VH: QLQLQESGPGLVKPSETLSLTCIVSGGSISGYSWNWIRQPPGKGLEWIGNIFSGGDDANYNPSLKSRVTLSVDTSKNHFSLRLSSVTAADTAVYYCARHSAGFITGRYFELWGQGALVTVSS
# VL: DIQMTQSPSSLSASLGDRVTITCRANQDISSSLAWYQQKPGKAPKPLIYYASNLESGVPSRFRGSGSGTEFTLTISSLQSEDFAVYYCQQANSDPLTFGGGTKVEIK
# B9: RM3-26 variant, heavy chain CDRH3 T100a to alanine, wild-type light chain (antibody, V domains shown)
# VH: QLQLQESGPGLVKPSETLSLTCIVSGGSISGYSWNWIRQPPGKGLEWIGNIFSGGDDANYNPSLKSRVTLSVDTSKNHFSLRLSSVTAADTAVYYCARHSAGFIAGRYFELWGQGALVTVSS
# VL: DIQMTQSPSSLSASLGDRVTITCRANQDISSSLAWYQQKPGKAPKPLIYYASNLESGVPSRFRGSGSGTEFTLTISSLQSEDFAVYYCQQYNSDPLTFGGGTKVEIK
# B10: K595 Fab (Fab, V domains shown)
# VH: EVQLLESGGGLVQPGGSLRLSCAASGFTFSNYVMTWARQAPGKGLEWVSSISDSGGNADYAHSVRGRFTISRDNSKNTLFLHMNSLRVEDTAVYHCAKALIAPGSLFRDQLLNWFDFWGQGTRVTVSS
# VL: DIQMTQSPSTLSASVGDRVTITCRASQSIGNWLAWYQQKPGKAPKLLIYQASTLKSGVPSRFSGSGSGTEFSLTISSLQPDDLATYFCQQYNGSPLTFAGGTKVEIK
# B11: K595 (antibody) (antibody, V domains shown)
# VH: EVQLLESGGGLVQPGGSLRLSCAASGFTFSNYVMTWARQAPGKGLEWVSSISDSGGNADYAHSVRGRFTISRDNSKNTLFLHMNSLRVEDTAVYHCAKALIAPGSLFRDQLLNWFDFWGQGTRVTVSS
# VL: DIQMTQSPSTLSASVGDRVTITCRASQSIGNWLAWYQQKPGKAPKLLIYQASTLKSGVPSRFSGSGSGTEFSLTISSLQPDDLATYFCQQYNGSPLTFAGGTKVEIK
# B12: K400 Fab (Fab, V domains shown)
# VH: EVQLVQSGAEVKTPGASVRVSCTASGDTFTNHDIHWVRQAPGQGLEWMGGMNADSGKTAYAQKFQGRVSMTINTPTNTAYMDLSSLRSEDTALYYCARGDGLDFTLFGVAHYSYYNGVGVWGHGTTITVSS
# VL: EIVMTQSPLALPVTPGEPASIFCKSSHSLLHYNGYTYLDWYLQKPGQSPQLLIYLGSNRASGVPDRFSGSGSGTEFTLKISRVEAEDVGVYYCMQALQTPITFGQGTRLEIK
# B13: K400 (antibody) (antibody, V domains shown)
# VH: EVQLVQSGAEVKTPGASVRVSCTASGDTFTNHDIHWVRQAPGQGLEWMGGMNADSGKTAYAQKFQGRVSMTINTPTNTAYMDLSSLRSEDTALYYCARGDGLDFTLFGVAHYSYYNGVGVWGHGTTITVSS
# VL: EIVMTQSPLALPVTPGEPASIFCKSSHSLLHYNGYTYLDWYLQKPGQSPQLLIYLGSNRASGVPDRFSGSGSGTEFTLKISRVEAEDVGVYYCMQALQTPITFGQGTRLEIK
# Experiments:
# [1] = target: T1, HCV-1 sE1E2.Cut1+2.SPYΔN-His6 (Hepatitis C virus genotype 1a, isolate …, UniProt P26664, stabilised); experiment: negative-stain electron microscopy
# HCV-1 E1E2 = HCV-1 E1E2 (Hepatitis C virus genotype 1a, isolate …, UniProt P26664, strain); experiment: ELISA
# [2] = target: T1, HCV-1 sE1E2.Cut1+2.SPYΔN-His6; experiment: BLI
# [3] = target: T1, HCV-1 sE1E2.Cut1+2.SPYΔN-His6; experiment: BLI; remark: listed apart in the source
# H77 E1E2, wild type [4] = target: T2, H77 E1E2, wild type (Hepatitis C virus genotype 1a, isolate …); experiment: ELISA
# H77 E1E2, wild type [5] = target: T2, H77 E1E2, wild type; experiment: ELISA; remark: listed apart in the source
binder,measurement,setting,value
B1,binding result,[1],binds
B2,binding result,HCV-1 E1E2,binds
same,binding result,[2],binds
B3,binding result,[3],binds
B4,binding result,"H77 E1E2, wild type [4]",binds
B5,binding result,"H77 E1E2, wild type [4]",no binding (tested: 1 µg/mL (methods))
B6,binding result,"H77 E1E2, wild type [4]",binds
B7,binding result,"H77 E1E2, wild type [4]",binds
B8,binding result,"H77 E1E2, wild type [4]",binds
B9,binding result,"H77 E1E2, wild type [4]",no binding (tested: 1 µg/mL (methods))
B10,binding result,[1],binds
B11,binding result,HCV-1 E1E2,binds
B12,binding result,[1],binds
B13,binding result,"H77 E1E2, wild type [5]",binds
same,binding result,HCV-1 E1E2,binds
